Biological target: T1, recombinant EF1a protein (rEF1a), elongation factor 1 alpha of Entamoeba histolytica (Entamoeba histolytica, UniProt P31018 1-442)
T1 construct: Elongation factor 1 alpha (EF1a) of Entamoeba histolytica
T1 sequence (looked up): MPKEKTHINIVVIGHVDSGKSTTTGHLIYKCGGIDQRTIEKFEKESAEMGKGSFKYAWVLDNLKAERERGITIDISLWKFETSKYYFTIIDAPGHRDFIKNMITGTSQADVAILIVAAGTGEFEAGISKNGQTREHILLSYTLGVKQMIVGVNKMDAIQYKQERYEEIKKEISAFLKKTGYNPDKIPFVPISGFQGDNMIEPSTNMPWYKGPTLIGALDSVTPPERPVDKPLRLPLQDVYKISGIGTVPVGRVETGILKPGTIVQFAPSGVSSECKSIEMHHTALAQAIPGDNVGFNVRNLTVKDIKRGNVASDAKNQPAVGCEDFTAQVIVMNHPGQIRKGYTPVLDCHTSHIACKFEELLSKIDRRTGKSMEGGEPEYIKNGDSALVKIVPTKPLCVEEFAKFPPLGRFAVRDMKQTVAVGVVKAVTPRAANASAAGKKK
Experiment: BLI; Octet-Red96; Igl-C (30 ug/mL, sodium acetate pH 4.0) or BSA (sodium acetate pH 5.0) immobilised on activated AR2G biosensors; rEF1a as analyte, twofold dilutions 4000 to 250 nM; running buffer pH 7.4, 1x Kinetics buffer, 30 °C; 1:1 binding model
Settings: both partners purified

B1: C-terminal fragment of the intermediate subunit of the Gal/GalNAc lectin (Igl-C) (domain or fragment)
chain: EGPNAEDKKKSCAQLNNNCKKEGKYEISDGFVTCLDCDDSAYIVGSQVGACTQCSPNAFKDENNKCQLCSTKQSQYGHCAACSATACITCEDINLILTGEKPCTVCKDGFYQIENATDGVYCSPCPAKCKTCKYNTTSKKVECVTCTEQRLKDIKAPECACPTGTVQLENGTCQSCSDLSKYPGCKKTDSCNVDSRTGFIYATECSDGFSGRSPYSNCTTCTKSNYYPKEGEKNGCAKCDDKCATCSDKDTCLTCADPLKVGSKCDGCKTGYYMSNGECKPCTNHCSECSSAAECTVCESDTYKVISGNGCNSCVDGFYFDEIKGTCIPCTSPCTKCVGVKKDCEEQETGCNSEKKKIVEECTKCSTKDHIAEVPVNGACVCAYGYVEGTSTEDNKIECQACKAKVNEFCDSCNSKDCLRCNAEYLEAKGGECVCVEGYYTSSWGSCIPCSRHMPHCTKCTGEGECTTCEDGWKLKDGKCNGAKGI
  Kd: 0.0907 µM
  koff: 0.000347 s⁻¹
  kon: 3810 M⁻¹ s⁻¹

From publication PMC7558290, “Evaluation on Elongation Factor 1 Alpha of Entamoeba histolytica Interaction with the Intermediate Subunit of the Gal/GalNAc Lectin and Actin in Phagocytosis” (Pathogens, 2020)
